Test results: the supplement of paper PMC7877785
± gives the uncertainty stated by the source.

Assay: self-splicing fitness, log relative to wild type (ln ratio); higher = more splicing; Tetrahymena group I intron in knt gene, E. coli kanamycin selection, DiMSum; sequences stand for … in CUCUCU…GGAGGGAAAAGUUAUCAGGCAUGCACCUGGUAGCUAGUCUUUAAACCAAUAGAUUGCAUCGGUUUAAAAGGCAAGACCGUCAAAUUGCGGGAAAGGGGUCAACAGCCGUUCAGUACCAAGUCUCAGGGGAAACUUUGAGAUGGCCUUGCAAAGGGUAUGGUAAUAAGCUGACGGACAUGGUCCUAACCACGCAGCCAAGUCCUAAGUCAACAGAUCUUCUGUUGAUAUGGAUGCAGUUCACAGACUAAAUGUCGGUCGGGGAAGAUGUAUUCUUCUCAUAAGAUAUAGUCGGACCUCUCCUUAAUGGGAGCUAGCGGAUGAAGUGAUGCAACACUGGAGCCGCUGGGAACUAAUUUGUAUGCGAAAGUAUAUUGAUUAGUUUUGGAGUACUCGUGGUCG
How it was run: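 Pooled colonies went to amplicon sequencing on an Illumina HiSeq 2500 after six replicate transformations. The plates were LB agar with 100 μg/mL carbenicillin, 50 μM IPTG and 0.2% rhamnose, with or without 25 μg/mL kanamycin, incubated overnight at 37°C or 30°C. The E. coli BL21(DE3) library had all eight P1ex-region intron nucleotides randomised, the intron placed in the knt kanamycin-resistance gene on pET-22b(+). DiMSum fitness is the error-weighted combination of replicate fold changes, kanamycin against none, normalised to wild type.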

Sequence | self-splicing fitness (ln) (30 °C) | self-splicing fitness (ln) (37 °C)
CGAGAGCAAUAUUACGGCUG | -1.18 ± 0.13 | -1.14 ± 0.17
CGAGAGCAAUAUUACGGGAG | -2.83 ± 0.16 | -0.597 ± 0.16
CGAGAGCAAUAUUACGGGGG | -3.83 ± 0.43 | -3.14 ± 0.47
CGAGAGCAAUAUUACGGGGU | -2.86 ± 0.37 | -2.27 ± 0.37
CGAGAGCAAUAUUACGUAAG | -2.59 ± 0.13 | -1.26 ± 0.15
CGAGAGCAAUAUUACGUAUA | -4.06 ± 0.36 | –
CGAGAGCAAUAUUACGUAUU | -2.53 ± 0.28 | -1.4 ± 0.28
CGAGAGCAAUAUUACGUCUC | -3.03 ± 0.22 | -3.17 ± 0.35
CGAGAGCAAUAUUACGUGGU | – | -3.2 ± 0.37
CGAGAGCAAUAUUACGUUAU | -3.57 ± 0.28 | -2.8 ± 0.28
CGAGAGCAAUAUUACGUUGG | -3.78 ± 0.3 | -2.48 ± 0.22
CGAUAGCAAUAUUACGACGA | -1.5 ± 0.17 | -0.547 ± 0.15
CGAUAGCAAUAUUACGACGG | 0.185 ± 0.098 | 0.424 ± 0.14
CGAUAGCAAUAUUACGACGU | -0.903 ± 0.065 | 0.0313 ± 0.07
CGAUAGCAAUAUUACGAGGU | -2.8 ± 0.22 | -3.01 ± 0.34
CGAUAGCAAUAUUACGAUGA | -1.8 ± 0.17 | -0.503 ± 0.2
CGAUAGCAAUAUUACGAUGC | -4.1 ± 0.21 | -1.81 ± 0.15
CGAUAGCAAUAUUACGCCCA | -1.46 ± 0.28 | 0.585 ± 0.16
CGAUAGCAAUAUUACGCCGC | -3.37 ± 0.37 | -1.3 ± 0.47
CGAUAGCAAUAUUACGCGUU | -3.13 ± 0.24 | -2.51 ± 0.22
CGAUAGCAAUAUUACGGACG | -1 ± 0.085 | -0.734 ± 0.11
CGAUAGCAAUAUUACGGAGA | -3.98 ± 0.42 | -2.4 ± 0.29
CGAUAGCAAUAUUACGGCAG | -0.958 ± 0.087 | -0.344 ± 0.12
CGAUAGCAAUAUUACGGGAC | -4.19 ± 0.36 | -2.42 ± 0.27

Sequence | self-splicing fitness (ln) (30 °C) | self-splicing fitness (ln) (37 °C)
CGAUAGCAAUAUUACGGGUA | -3.87 ± 0.4 | -2.64 ± 0.2
CGAUAGCAAUAUUACGGUGC | -3.57 ± 0.3 | -2.23 ± 0.24
CGAUAGCAAUAUUACGUAGA | -3.31 ± 0.17 | -1.3 ± 0.13
CGAUAGCAAUAUUACGUAUU | -3.53 ± 0.25 | -2.61 ± 0.24
CGAUAGCAAUAUUACGUGCG | -2.23 ± 0.089 | -1.04 ± 0.1
CGCAAGCAAUAUUACGACAC | -2.89 ± 0.29 | -0.474 ± 0.22
CGCAAGCAAUAUUACGACUG | -0.662 ± 0.097 | -0.47 ± 0.12
CGCAAGCAAUAUUACGAGCC | -1.07 ± 0.095 | -0.349 ± 0.12
CGCAAGCAAUAUUACGAUAG | -0.276 ± 0.066 | 0.36 ± 0.092
CGCAAGCAAUAUUACGAUAU | -2.7 ± 0.14 | -1.91 ± 0.13
CGCAAGCAAUAUUACGCCAA | -2.12 ± 0.27 | -3.03 ± 0.35
CGCAAGCAAUAUUACGCGAU | -3.15 ± 0.22 | -3.83 ± 0.42
CGCAAGCAAUAUUACGCGUU | -3.9 ± 0.15 | -2.86 ± 0.15
CGCAAGCAAUAUUACGCUGC | -2.59 ± 0.33 | -2.41 ± 0.3
CGCAAGCAAUAUUACGCUGU | -3.81 ± 0.24 | -1.48 ± 0.16
CGCAAGCAAUAUUACGGCCC | -1.17 ± 0.24 | -1.23 ± 0.26
CGCAAGCAAUAUUACGGCUA | -1.15 ± 0.063 | -0.556 ± 0.076
CGCAAGCAAUAUUACGGGAC | -3.18 ± 0.31 | -2.52 ± 0.29
CGCAAGCAAUAUUACGGGCC | -1.55 ± 0.12 | -1.02 ± 0.17
CGCAAGCAAUAUUACGGGGC | -3.65 ± 0.17 | -2.6 ± 0.15
CGCAAGCAAUAUUACGGGGG | -3.39 ± 0.18 | -1.12 ± 0.13
CGCAAGCAAUAUUACGGUCG | -2.32 ± 0.11 | -0.33 ± 0.1
CGCAAGCAAUAUUACGGUGC | -4.9 ± 0.29 | -2.53 ± 0.23
